For 49 sequences, Kd and IC50 results are on record in the Immune Epitope Database (IEDB).

In one experiment the target is HLA-B*44:02. The experiment is described as follows: IEDB peptide-MHC binding, purified MHC/competitive/radioactivity; filed as Kd, often an IC50 or EC50 that approximates it; ≥ and ≤ were set here for values at or beyond the usual limits of such assays.
For a further experiment, the target named is HLA-A*32:01. The description is as above.
The target in experiment [1] is HLA-B*40:01. Briefly: IEDB peptide-MHC binding, purified MHC/direct/fluorescence; filed as Kd, often an IC50 or EC50 that approximates it; ≥ and ≤ were set here for values at or beyond the usual limits of such assays. The note with it: source organism: Influenza A virus (A/Moscow/346/2003(H3N2)).
The target of experiment [2] is HLA-A*02:01. Briefly: IEDB peptide-MHC binding, purified MHC/competitive/fluorescence; ≥ and ≤ were set here for values at or beyond the usual limits of such assays.
Another experiment addresses HLA-A*24:02. Briefly: IEDB peptide-MHC binding, purified MHC/competitive/radioactivity; filed as Kd, often an IC50 or EC50 that approximates it; ≥ and ≤ were set here for values at or beyond the usual limits of such assays. The conditions noted are these: source organism: Homo sapiens.
Another experiment has as its target HLA-B*35:01. The experiment is described as above.
A further experiment deals with HLA-B*53:01. The experiment is described as above.
A further experiment has as its target HLA-B*44:03. The experiment is described as above.
The target of experiment [3] is HLA-B*40:01. Described as above.
A further experiment concerns the target HLA-B*51:01. The experiment is described as above.
The target in a further experiment is HLA-A*02:06. The description is as above.
The target in a further experiment is HLA-A*26:01. The experiment is described as above.
For the next experiment, the target named is HLA-A*01:01. Described as above.
The target in the next experiment is HLA-A*23:01. The experiment is described as above. The conditions noted are these: source organism: Dengue virus 4 Dominica/814669/1981.
The target in a further experiment is HLA-A*03:01. The experiment is described as follows: IEDB peptide-MHC binding, purified MHC/direct/fluorescence; filed as Kd, often an IC50 or EC50 that approximates it; ≥ and ≤ were set here for values at or beyond the usual limits of such assays. The note with it: source organism: Escherichia coli.
Another experiment concerns the target HLA-A*31:01. The experiment is described as above. The note with it: source organism: Escherichia coli.
A further experiment addresses HLA-A*30:02. Briefly: IEDB peptide-MHC binding, purified MHC/competitive/radioactivity; filed as Kd, often an IC50 or EC50 that approximates it; ≥ and ≤ were set here for values at or beyond the usual limits of such assays.
A further experiment concerns the target HLA-A*02:03. The experiment is described as above. The note with it: source organism: Vaccinia virus Copenhagen.
The next experiment has as its target HLA-A*02:02. The experiment is described as above. The note with it: source organism: Vaccinia virus Copenhagen.
Experiment [4] concerns the target HLA-A*02:01. The experiment is described as follows: IEDB peptide-MHC binding, purified MHC/competitive/fluorescence; filed as Kd, often an IC50 or EC50 that approximates it; ≥ and ≤ were set here for values at or beyond the usual limits of such assays.
The mark [5] stands for this setting: source organism: Dengue virus 3 Martinique/1243/1999.
The mark [6] stands for this setting: source organism: Vaccinia virus WR.
Where [7] appears, read: source organism: Dengue virus 2 Jamaica/1409/1983.
[8] abbreviates: source organism: Zaire ebolavirus.
[9] abbreviates: source organism: Sudan ebolavirus.
Where [10] appears, read: source organism: Dengue virus 1 Brazil/97-11/1997.
[11] abbreviates: source organism: Dengue virus 4 Philippines/H241/1956.
[12] abbreviates: source organism: Dengue virus 1 Singapore/S275/1990.
[13] abbreviates: source organism: Vaccinia virus Copenhagen.

One may read the Kd as the constant that tells how readily two partners part at equilibrium. As for GEDAPCKIPF, the Kd with HLA-B*44:02 (setting [5]) amounted to 59.2 nM. As for ATALILVSF, the dissociation constant (Kd) with HLA-A*32:01 (setting [6]) amounted to 1.42 nM. As to VETPIRNEW, the equilibrium dissociation constant (Kd) in the experiment with HLA-B*40:01 [1] is at least 20000 nM. SQSTIPETI: the Kd in the experiment with HLA-A*32:01 (setting [7]) is at least 24100 nM. Usually IC50 stands for the concentration at which inhibition is half-maximal. In turn, MHNQDGLIC returned a half-maximal inhibitory concentration (IC50) with HLA-A*02:01 [2] (setting [8]) of 2340 nM.

For the sequence MNEENRFVT, the half-maximal inhibitory concentration (IC50) with HLA-A*02:01 [2] (setting [8]) amounted to 41100 nM. Compared with the last sequence, the IC50 is about 18-fold higher.

For RWGLLLALL, the Kd in the experiment with HLA-A*24:02 turned out to be 4.5 nM. Regarding EPGQLKLNWF, the Kd in the experiment with HLA-B*35:01 (setting [7]) was at least 42000 nM; in the experiment with HLA-B*53:01 (setting [7]), 593 nM.

Consider EEQTLTILI, for which the Kd with HLA-B*44:02 (setting [7]) stood at 14 nM; in the experiment with HLA-B*44:03 (setting [7]), 146 nM. On to GESSPNPTI, for which the results for the Kd in the experiment with HLA-B*44:02 (setting [7]) and in the experiment with HLA-B*40:01 [3] (setting [7]) were 83.5 nM and 8.75 nM, respectively.

As to TTHTSGPSV, in the experiment with HLA-A*02:01 [2] (setting [9]), the IC50 was 17800 nM. On to FPGKTVWFV, for which the figures for the equilibrium dissociation constant (Kd) with HLA-B*53:01 (setting [10]) and with HLA-B*51:01 (setting [10]) were 86.1 nM and 6360 nM, respectively. Turning to YVILTILTII, the dissociation constant Kd with HLA-A*02:06 (setting [11]) is 2.38 nM; in the experiment with HLA-B*53:01 (setting [11]) it was 5330 nM. As for VTYLALIATF, the Kd with HLA-A*26:01 (setting [5]) was at least 21200 nM; in the experiment with HLA-A*01:01 (setting [5]), at least 50800 nM. For the sequence MAMVLSIVS, in the experiment with HLA-B*35:01 (setting [12]), the Kd was 659 nM.

As to MLVTPSMTM, the Kd in the experiment with HLA-B*35:01 (setting [5]) came to 3840 nM. Regarding VTNVIIIVI, the Kd with HLA-A*32:01 (setting [6]) worked out at 13.7 nM. As for LCLIPTVMAF, in the experiment with HLA-A*23:01, the Kd was found to be 454 nM.

As to LAGPMPVTV, the dissociation constant (Kd) with HLA-B*51:01 (setting [10]) is 870 nM. For SVVETLEQM, the Kd with HLA-A*26:01 (setting [10]) was found to be 138 nM. As to EEYTDYMPSM, the equilibrium dissociation constant (Kd) in the experiment with HLA-B*44:03 (setting [7]) came to 116 nM; with HLA-B*40:01 [3] (setting [7]) it was 833 nM. Regarding KTHVSSWEEV, in the experiment with HLA-A*32:01 (setting [10]), the Kd is 6690 nM.

Consider YLFSQNYSF, for which, in the experiment with HLA-A*32:01 (setting [6]), the Kd was 1.39 nM.

With MASVEPHWI, the values for the Kd with HLA-B*53:01 (setting [10]) and with HLA-B*51:01 (setting [10]) were 1400 nM and 1790 nM, respectively.

In the experiment with HLA-A*02:01 [2] (setting [8]), KKILMNFHQ showed an IC50 of 63400 nM. Turning to MPKPSLFVR, the Kd with HLA-A*03:01 was at least 20000 nM; with HLA-A*31:01, 204 nM. Consider LTDYGALTL, for which, in the experiment with HLA-A*01:01 (setting [10]), the equilibrium dissociation constant (Kd) is 201 nM. Turning to RNPAQEDDQY, the Kd in the experiment with HLA-A*30:02 (setting [11]) stood at 15900 nM. On to MSYSMCTGKF, for which the Kd in the experiment with HLA-A*30:02 (setting [7]) is 1100 nM; in the experiment with HLA-A*26:01 (setting [7]), 79.4 nM; with HLA-A*01:01 (setting [7]) it was 18000 nM. In the case of LAHAIGTSI, the Kd in the experiment with HLA-B*51:01 (setting [10]) amounted to 157 nM. For LEFFLMVLLI, the equilibrium dissociation constant (Kd) with HLA-B*44:03 (setting [10]) is 9090 nM; with HLA-B*40:01 [3] (setting [10]), 10100 nM. Turning to LAIMAVFKM, the dissociation constant (Kd) in the experiment with HLA-B*35:01 (setting [11]) is 22.2 nM. The sequence TLEDDRERL had an IC50 in the experiment with HLA-A*02:01 [2] (source organism: Variola virus) of 29900 nM. With DEDHAHWTEA, the Kd with HLA-A*32:01 (setting [10]) stood at 390 nM. As to LIAGIILLI, the Kd in the experiment with HLA-A*32:01 (setting [13]) is at least 77800 nM; with HLA-A*02:06 (setting [13]) it was 8220 nM; in the experiment with HLA-A*02:03, 38.5 nM; in the experiment with HLA-A*02:02, 0.173 nM.

For the sequence YIMYNILPI, the dissociation constant (Kd) in the experiment with HLA-A*32:01 (setting [6]) is 39.4 nM. QLVCKDHLA: the IC50 in the experiment with HLA-A*02:01 [2] (setting [9]) is 19600 nM. That is a double-digit micromolar value.

Turning to MAYMIGQTGI, the Kd with HLA-B*51:01 (setting [11]) stood at 57.1 nM. Consider LETKGVERL, for which the dissociation constant (Kd) with HLA-B*40:01 [3] (setting [5]) came out at 21.7 nM.

For ILDSFDPLV, in the experiment with HLA-A*02:01 [4] (source organism: Hepacivirus hominis), the Kd worked out at 0.6 nM.

On to MESEGIFSP, for which the Kd in the experiment with HLA-B*40:01 [3] (setting [12]) was determined as 2270 nM. On to KMLNLNYIV, for which the Kd with HLA-A*32:01 (setting [6]) was found to be 640 nM.

On to KLGEFYNQMM, for which, in the experiment with HLA-A*02:01 [2] (source organism: Influenza B virus), the half-inhibitory concentration (IC50) amounted to 2820 nM.

Take TTERGGKAY: the dissociation constant (Kd) with HLA-A*01:01 (setting [11]) came to 917 nM. For NLEKKITNV, the Kd with HLA-A*02:01 [4] (source organism: Vaccinia virus WR 65-16) worked out at 216 nM. On to EVEDYGFGIF, for which, in the experiment with HLA-A*26:01 (setting [10]), the dissociation constant Kd came out at 1610 nM.

Regarding IANQAAILM, in the experiment with HLA-B*35:01 (setting [10]), the equilibrium dissociation constant (Kd) is 103 nM. For LYSACFWWL, the Kd in the experiment with HLA-A*24:02 was 28 nM. For the sequence KLELKGMSY, the Kd in the experiment with HLA-A*30:02 (setting [5]) was at least 76900 nM; with HLA-A*01:01 (setting [5]) it was 391 nM.
